Source: article PMC10044823, “Defensin Interactions in Relation to Monoclonal and Disease-Related Proteinase 3 Antibodies Binding at the Catalytic Site” (Antibodies, 2023)

T1: PR3 peptide 17 (Homo sapiens, UniProt P24158)
T1 construct: By the stated scheme this would be residues 161-180 of mature PR3; source: synthetic peptide (Schäfer-N); not shown: cysteine, N-terminal, kept
T1 chain: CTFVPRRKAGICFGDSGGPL

T2: PR3 peptide 2 (Homo sapiens, UniProt P24158)
T2 construct: By the stated scheme this would be residues 11-30 of mature PR3; source: synthetic peptide (Schäfer-N); not shown: cysteine, N-terminal, kept
T2 chain: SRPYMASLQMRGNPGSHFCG

T3: PR3 peptide 1 (Homo sapiens, UniProt P24158)
T3 construct: By the stated scheme (20-mers, overlap 10, from the mature N-terminus) this would be residues 1-20 of mature PR3; Coupled to CovaLink-NH plates by the extra N-terminal cysteine; source: synthetic peptide (Schäfer-N); not shown: cysteine, N-terminal, kept
T3 chain: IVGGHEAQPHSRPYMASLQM

T4: PR3 peptide 3 (Homo sapiens, UniProt P24158)
T4 construct: By the stated scheme this would be residues 21-40 of mature PR3; source: synthetic peptide (Schäfer-N); not shown: cysteine, N-terminal, kept
T4 chain: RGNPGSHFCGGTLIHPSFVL

T5: PR3 peptide 7 (Homo sapiens, UniProt P24158)
T5 construct: By the stated scheme this would be residues 61-80 of mature PR3; source: synthetic peptide (Schäfer-N); not shown: cysteine, N-terminal, kept
T5 chain: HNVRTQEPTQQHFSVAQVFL

T6: PR3 peptide 16 (Homo sapiens, UniProt P24158)
T6 construct: By the stated scheme this would be residues 151-170 of mature PR3; source: synthetic peptide (Schäfer-N); not shown: cysteine, N-terminal, kept
T6 chain: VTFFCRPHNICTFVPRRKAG

T7: PR3 peptide 20 (Homo sapiens, UniProt P24158)
T7 construct: source: synthetic peptide (Schäfer-N); not shown: cysteine, N-terminal, kept
T7 chain: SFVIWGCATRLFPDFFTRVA


Legend:
[1] = target: T8, Proteinase 3 purified in-house from human neutrophil granulocytes (SSI PR3) (human, UniProt P24158, small N-linked glycans on Asn102 and 147; none, one or two alpha-defensins covalently attached to the glycans)
[2] = target: T1, PR3 peptide 17; assay: ELISA; synthetic 20-mer PR3 peptides coupled by an N-terminal cysteine to CovaLink-NH plates; MAb in solution; corrected by non-coated wells; conditions: both partners purified
[3] = target: T8, Proteinase 3 purified in-house from …; assay: SPR; Biacore 1000, CM5 chip, SSI PR3 immobilised by amine coupling (1287 RU); MAb (whole IgG) injected at 0.1 and 0.4 µg/mL, 25 °C, HBS-E pH 7.4 (10 mM HEPES, 3 mM EDTA, 150 mM NaCl); Langmuir or drifting baseline fit; 'pseudo-affinity/avidity' constants (apparent); conditions: both partners purified
[4] = target: T8, Proteinase 3 purified in-house from …; assay: ELISA; elution assays with buffers of different pH: pH at which the MAb dissociated from PR3; conditions: both partners purified
[5] = target: T9, human α1-antitrypsin (human, UniProt P01009 25-418); assay: ELISA + other: SDS-PAGE; α1-AT binding of the PR3 preparations, 'Determined by ELISA and/or SDS-PAGE'; conditions: both partners purified
T9 construct: also called AT; α1-AT; source: bought: Calbiochem, Merck

[6] = target: T2, PR3 peptide 2; assay: ELISA; synthetic 20-mer PR3 peptides coupled by an N-terminal cysteine to CovaLink-NH plates; MAb in solution; corrected by non-coated wells; conditions: both partners purified
[7] = target: T3, PR3 peptide 1; assay: as above; conditions: both partners purified
[8] = target: T4, PR3 peptide 3; assay: as above; conditions: both partners purified
[9] = target: T5, PR3 peptide 7; assay: as above; conditions: both partners purified
[10] = target: T6, PR3 peptide 16; assay: as above; conditions: both partners purified
[11] = target: T7, PR3 peptide 20; assay: as above; conditions: both partners purified

T9 sequence (P01009 25-418): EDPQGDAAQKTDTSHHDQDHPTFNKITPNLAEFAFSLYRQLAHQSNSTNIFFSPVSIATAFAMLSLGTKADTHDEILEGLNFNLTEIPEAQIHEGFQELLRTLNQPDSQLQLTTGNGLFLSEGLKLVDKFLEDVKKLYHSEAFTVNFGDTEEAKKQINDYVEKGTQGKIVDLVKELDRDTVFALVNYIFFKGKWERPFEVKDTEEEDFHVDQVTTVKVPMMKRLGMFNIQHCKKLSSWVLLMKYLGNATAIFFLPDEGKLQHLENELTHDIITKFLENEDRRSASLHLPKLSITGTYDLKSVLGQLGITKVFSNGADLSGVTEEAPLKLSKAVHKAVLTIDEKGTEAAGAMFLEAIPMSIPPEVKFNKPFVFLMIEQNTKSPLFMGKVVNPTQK

Row | Binder | binding result [2] | Ka [3] [M⁻¹] | koff [3] [s⁻¹] | kon [3] [M⁻¹ s⁻¹] | Elution pH (High) [4] [pH] | Elution pH (Low) [4] [pH] | binding result [5] | also measured
1 | 172-03 (antibody, V domains shown) VH: QVQLQQAGAELVKPGASVKLSCKASGYTFTNYWMHWVKQRPGQGLEWIGEINPTNGGINYNEEFIKKATLTADKSSNTAYMQLSGLTSEDSAVYFCLIEIMTGEGYWGQGTSLTVSS VL: DILMTQSPSSLTVSAGEKVTMSCKSSQNLLVSGNQNNYLAWHQQKPGRSPKMLIIWASTRVSGVPDRFIGSGSGTDFTLTINSVQAEDLAVYYCQQSFSAPLTFGAGTKLELK | – | – | – | – | – | – | – | binding result [1]: binds
2 | PR3 MAb HYB 172-01 (antibody, V domains shown, Mouse IgG1,κ (clone 6A6); raised against a Triton X-100 extract of purified neutrophil granulocyte alpha-granules; also called clone 6A6; source: mouse hybridoma, produced in-house) VH: EVQLEQSGGDLVKPGGSLKLSCAASGFTFSTYGMSWVRQTPDKRLEWVATFVSGGSYNYYPDSVKGRFAISRDNAKNALYLQMSSLKSEDTAMYYCVRRGASYDALDYWGQGTSVTVSS VL: SIVMTQTPKFLLVSAGDRITITCKASQSVSNDVAWYQQKPGQSPKLLIYYASNRYTGVPDRFTGSGYGTDFTFTISTVQAEDLAVYFCQQDYSSPFTFGSGTKLEIK | binds | 5.23e+13 | 5.21e-08 | 2.72e+06 | 12 | 4 | – | Kd [3]: 0.0191 pM
3 | PR3 MAb HYB 172-05 (antibody, V domains shown, Mouse IgG2a,κ (clone 4A5); also called clone 4A5; source: mouse hybridoma, produced in-house) VH: EVQLQQSGPDLVKPGASVKISCKASGYSFTGYYLHWVKQSHGKSLEWIGRVNPNNDITTYNQKFKDKAILTVDKSSSTAYMEFRSLTSEDSAVYYCAGGGNALDYWGQGTSVTVSS VL: RIVMTQTPKFLLVSAGDRVTITCKASQSVSNNVGWYQQKTGQSPKLLIYYASNRYTGVPDRFTGSGYGTDFTFTISTVQAEDLAVYFCQQDYNSPYTFGGGTKLEIK | binds | 1.81e+11 | 6.84e-05 | 1.24e+07 | 12 | 2 | – | –
4 | Proteinase 3 purified in-house from human neutrophil granulocytes (SSI PR3) (enzyme, UniProt P24158 28-248, looked up, small N-linked glycans on Asn102 and 147; none, one or two alpha-defensins covalently attached to the glycans, proteinase 3, human, active mature enzyme purified from neutrophil granulocytes; The preparation carries on average 5-6 associated alpha-defensins per PR3 (mostly non-covalent); proteolytically active; also called PR3 (SSI); native PR3 complex) IVGGHEAQPHSRPYMASLQMRGNPGSHFCGGTLIHPSFVLTAAHCLRDIPQRLVNVVLGAHNVRTQEPTQQHFSVAQVFLNNYDAENKLNDVLLIQLSSPANLSASVATVQLPQQDQPVPHGTQCLAMGWGRVGAHDPPAQVLQELNVTVVTFFCRPHNICTFVPRRKAGICFGDSGGPLICDGIIQGIDSFVIWGCATRLFPDFFTRVALYVDWIRSTLR | – | – | – | – | – | – | binds | –
5 | Proteinase 3 from Wieslab/Eurodiagnostica (Wieslab PR3) (enzyme, human, UniProt P24158 28-248, looked up, small N-linked glycans on Asn102 and 147; none, one or two alpha-defensins covalently attached to the glycans, proteinase 3, human, commercial preparation; The preparation carries on average 5-6 associated alpha-defensins per PR3; proteolytically active; also called PR3 (Wieslab); source: bought: Wieslab/Eurodiagnostica) IVGGHEAQPHSRPYMASLQMRGNPGSHFCGGTLIHPSFVLTAAHCLRDIPQRLVNVVLGAHNVRTQEPTQQHFSVAQVFLNNYDAENKLNDVLLIQLSSPANLSASVATVQLPQQDQPVPHGTQCLAMGWGRVGAHDPPAQVLQELNVTVVTFFCRPHNICTFVPRRKAGICFGDSGGPLICDGIIQGIDSFVIWGCATRLFPDFFTRVALYVDWIRSTLR | – | – | – | – | – | – | binds | –
6 | Proteinase 3 from Arotec (Arotec PR3) (enzyme, human, UniProt P24158 28-248, looked up, small N-linked glycans on Asn102 and 147; none, one or two alpha-defensins covalently attached to the glycans, proteinase 3, human, commercial preparation; On average 1-2 associated defensins per PR3; source: bought: Arotec) IVGGHEAQPHSRPYMASLQMRGNPGSHFCGGTLIHPSFVLTAAHCLRDIPQRLVNVVLGAHNVRTQEPTQQHFSVAQVFLNNYDAENKLNDVLLIQLSSPANLSASVATVQLPQQDQPVPHGTQCLAMGWGRVGAHDPPAQVLQELNVTVVTFFCRPHNICTFVPRRKAGICFGDSGGPLICDGIIQGIDSFVIWGCATRLFPDFFTRVALYVDWIRSTLR | – | – | – | – | – | – | binds | –
7 | PR3 MAb HYB 172-04 (antibody, V domains shown, Mouse IgG2a,κ (clone 4A3); also called clone 4A3; source: mouse hybridoma, produced in-house) VH: EVKLEQSGPDLVKPGASVKISCKASGYSFTGYYLHWVKQSHGKSLEWIGRVNPNNDITTYNQKFKDKAILTVDKSSSTAYMEFRSLTSEDSAVYYCAGGGNALDYWGQGTSVTVSS VL: EIVLTQSPAIMSASLGEEITLTCSASSSVSYMHWYQQKSGTSPKLLIYSTSNLASGVPSRFSGSGSGTFYSLTISSVEAEDAADYYCHQWSSYGTFGGGTKLEIK | binds | 1.8e+10 | 0.000571 | 1.03e+07 | 12 | 2 | – | binding result [6]: binds; binding result [7]: binds; binding result [8]: binds; binding result [9]: binds; binding result [10]: binds; binding result [11]: binds; Kd [3]: 55.5 pM
